The text below walks through data of the nanobody polyreactivity screen of Harvey et al. (2022).

A short description of the data set: yeast display, Sf9 membrane polyspecificity reagent, FACS + sequencing; frameworks hold sequencing errors. A digest of the protocol: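 After 36–48 hours of galactose induction, yeast (Saccharomyces cerevisiae BJ5465) displaying a synthetic nanobody library were stained at 4 °C for 1 hour with 10% biotinylated, detergent-solubilized Sf9 membrane reagent. Streptavidin microbeads enriched the stained cells before FACS sorting into low and high (top ~1%) gates on anti-HA and streptavidin fluorescence. Each clone's polyreactivity label reflects its gate of origin.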
Consider “QVQLVESGGGLVQAGGSLRLSCAASGSTFYQYAAMGWYRQAPGKERELVAAISGRGTRTYYADSVKGRFTISRDNAKNTVYLQMNSLKPEDTAVYYCAAEVNIRQYGFDYWGQGTQVTVSS”, for which the “polyreactivity (PSR sort gate)” value was “high polyreactivity”. As for “QVQLVESGGGLVQAGGSLRLSCAASGSIFRQYAMGWYRQAPGTERELVAAINYSGGNTYYADSVKGRFTISRDNAKNTVYLQMNSLKPEDTAVYYCAADSVRHYWWAYYYWGQGTQVTVSS”, the entry is “low polyreactivity”; as for “QVQLVESGGGLVQAGGSLRLSCAASGRIFYPNAMGWYRPAPGKVRELVAGISRSGGSTYYADSVKGRFTLSRDNAKNTVYLQKNSLKPEDTAVYYCAARYYASDRHFRGDYWGQGTQVTVSS”, “low polyreactivity”; as for “QVHLVESGGGLVQAGGSLRLSCAASGSIFASNTMGWYRQAPGKERELVAGITKIGSSTYYADSVKGRFTISRDNAKNTVYLQMNSLKPEDTAVYYCNAYGPNIYSSRYDYWGQGTQVTVSS”, “low polyreactivity”. As for “QVQLVESGGGLVQAGGSLRLSCAASGSTFEYYAMGWYRQAPGKERELVAAISTGGSTYYADSVKGRFTISRDNAKNTVYLQMNSLKPEDTAVYYCAALYRTSYVRMGYWGQGTQVTVSS”, the entry is “high polyreactivity”; as for “QVQLVESGGGLVQAGGSLSLSCAASGITFEWYAMGWYRQAPGKERELVAAISTSGGSTYYADSVKGRFTISRDNEKNTVYLQMNSLKPEDTEVYYCNTVSYGYSSKLYDYWGHGTQVTVSS”, “high polyreactivity”. Regarding “QVQLVESGGGLVQAGGSLRLSCAASGFTFSLYAMGWYRQAPGKERELVAAISSRGGTTYYADSVKGRFTISRDNAKNTVYLQMNSLKPEDTAVYYCAARYVYTRSAFDYWGQGTQVTVSS”, the “polyreactivity (PSR sort gate)” value was “high polyreactivity”. With “QVQLVESGGGLVQAGGSLRLSCAASGRIFRRYVMGWYRQAPGKERELVARIRIRDSNTYYADSVKGRCTISRDNAKNTVYLQMNSLKPEDTAVYYCAVVANYVYSKYDYWGQGTQVTVSS”, the “polyreactivity (PSR sort gate)” value is recorded as “low polyreactivity”. As for “QVQLVESGGGLVQAGGSLRLSCAASGFIFTVNAMGWYRQAPGKERELVAAITQSGGNTSYADSVKGRFTISRDNAKNTVYLQMNSLKPEDTAVYYCNAEYTWPYHGVRNGWFNFKYEYWGQGTQVTVSS”, the entry is “low polyreactivity”; as for “QVQLVESGGGLVQAGGSLRLSCAASGSTFYDYVMGWYRKAPGKERELVAAITGDGTTDYADSVKGRFTISRDNAKNTVYLQMNSLKPEDTAVYYCNADISLDYDYWGQGTQVTVSS”, “low polyreactivity”.

As for “HVQLVESGGGLVQAGASLRLICAASGRIFWGYAMGWSRHAPGKERELVAGITYSGGSTYYADSVKGRFTISRDNAKNTVYLQMNSLKPEDTADYYCAAAKSYRSGSWYEYWGQGTQVTVSS”, the “polyreactivity (PSR sort gate)” value is “high polyreactivity”. As to “QVHLVESGGGLVQAGGILRLSCPASGSTFVYYAMVWYRQAPGKERELVAAISRSGGNTYYAYSVKGRFTISRDNAKNTVYLQMNSLKQEDTAVYYCAARSYGVQYYYWGQGTQVTVSS”, the “polyreactivity (PSR sort gate)” value was “high polyreactivity”. Take “QVQHVESRGGLVQAGGSLRLSCAASGSIFNPYDMGWYRPATGKDRELVAAIDWSGGSTYYADSVKGRFTISRDNAKNTVYLQMNSLKPEDSAVYYCAAGYGGWAWNHVSYGGDYWGQGTQVTVSS”: the “polyreactivity (PSR sort gate)” value is “low polyreactivity”. Regarding “QVQLVESGGGLVQAGGSLRLSCAASGFTFYQYAMGWYRQAPGKERELVAAISSGGSTYYADSVKGRFTISRDNAKNTVYLQMNSLKPEDTAVYYCAARFYRPGVKQYGYWGQGTQVTVSS”, the “polyreactivity (PSR sort gate)” value was “high polyreactivity”. For the sequence “QVQLVESGGGLVQAGGSLRLSCAASGSTFYWYAMGWYRQAPGKERELVAAITSTGGSTYADSVKGRFTISRDNAKNTVYFQMNSLKPEDTAVYYWNVDTSSPSRRDYDYWGQGTQVTVSS”, the “polyreactivity (PSR sort gate)” value is listed as “low polyreactivity”.

Regarding “QVQLVESGGGLVQAGGSLRLSCPASGSNFGVYAMAWYRQAPGKERELVAAITSSGGSTYYADSVKGRFTISRDNAKNTVYFQMNSLKPEDTAVYYCSKDSFSHSHYTRYGYWGQGSQVTVSS”, the “polyreactivity (PSR sort gate)” value is recorded as “low polyreactivity”. Then “QVQLVESGGGLVQAGGSLRLSCAASGRIFYDYTMGWYRPAPGKERELVAAINSGGGSTYYADSVKGRFTISRDNAKITVYLQMNSLKPEDTAVYYCNADGQWNIWEYDYWGQGTQVTVSS”, with “high polyreactivity”; and “QVQLVESGGGLVQAGGSLRLSCAASGSTFSVYGMGWYRQAPGKERELVAINIIGGSTYYADSVKGRFTISRDNAKNTVYLQMNSLKPEDTAVYYCAADSFPSEFDYWGQGTQVTVSS”, with “low polyreactivity”. For “QVQLVESGGGLVQAGGSLRLSCAASGRILWAYAMGWYRQAPGKEREFVAAISWSTGSTYYADSVKGRFTISRDNAKNTVNIQLNSLQPDDTAVYYCAAQLAKTIRGRGYNSWGQGTQVTVSS”, the “polyreactivity (PSR sort gate)” value is “low polyreactivity”. As for “QVQLEESGGGLVQAGGSLRLSCAASGRTFKYYSMGWYRPAPGKERELVAAIRSRTGSTYYADSVKGRFTISRDNAKNTVYLQMNSLKPEDTAVYYCAAQPGSYYGPRWYYDDDYWGQGTQVTVSS”, the entry is “high polyreactivity”; as for “QVQLVESGGGLVQAGASLRLSCAPSGSIFLAYAMGWYRQAPGKEREFVAALSFTDGSTYYADSVKGRFTISRDNAKNTVYLQMNSLKPEDTAVYYCNKGASPDDYDYWGQGTQVTVSS”, “low polyreactivity”; as for “QVQLVESGGGLVQAGGSLRLSCAASGITFYIYAMGWYRQAPGKERELVAAISDDGSTHYADSVKGRFTISRDNAKNTVYLQMNSLTPEDTAVYYCNADDDWFFDFFDYDYWGQGTQVTVSS”, “low polyreactivity”. Then “QVQLVESGGCLVQAGGSLRLSCAASGITFYVYAMGWYRQAPGKESELVASITSGGGSTDYADSVKGRVTISRDNAKNTVYLQMNSLKPEDTAVYYCAARYPLLNQLYDFDYWGQGTQVTVSS”, with “low polyreactivity”. As to “QVQLVESGGGLVQAGGSLRLSCAASGSTFKRYTMGWYRQAPGKESELVAAISSSGGSTYYADSVKGRFTISRDNAKNTVYLQMNSQKPEDTAVYYCAKGYQRGRDYWGQGTQVTVSS”, the “polyreactivity (PSR sort gate)” value is reported as “high polyreactivity”.

In the case of “QVQLVESGGGIVQAGGSLRLSCAASGRILVSNTMGWYRQAPGKERELVAGIRRGGSTDYADSVKGRFTISRDNAKNTVYLQMNSLKPEDTAVYYCNARYSNGYTKLGYWGQGTQVTVSS”, the “polyreactivity (PSR sort gate)” value is “low polyreactivity”. Then “QVQLVESGGGLVQAGGSLRLSCAASGSTFWSNTMGWYRQAPGKERELVATITDSGGITYYADSVKGRFTISRDNAKNTVYLQMNSLKPEDTAVYYCNVRKTWYGYSVTGRYDYWGQGTQVTVSS”, with “low polyreactivity”; and “QVQLVESGGGLVQAGGSLRLSCAASGSIFRYYAMGWYRQAPGKERELVAAIRWSGGRTYYADSVKGRFTISRDNAKNTVYLQMNSLKPEDTAVYYCAADQPDYKTNVRYYYWGQGTQVTVSS”, with “high polyreactivity”; and “QVQLVESGGGLVQAGGSLRLSCAASGSTFQTNAMGWYRQAPGKERELVAGIRWRGGSTYYADSVKGRFTISRDNAKNTVYLQMNSLKPEDSAVYYCAAYYLWHHYLFDYWGQGTQVTVSS”, with “high polyreactivity”.

As to “QVQLVESGGGLVQAGGSLRLSCAASGSTVGVNAMGWYRQAPGKERELVAALSNGDNTYYADSVKGRFTISRDHAKNTVYLQMNSLKPEDTAVYYCAADQYWSWIYYPVVESDYWGQGTQVTVSS”, the “polyreactivity (PSR sort gate)” value is reported as “low polyreactivity”. As for “QVQLVESGGGLVQAGGSLRLSCAASGSTFPGYAMGRYRPAPGKERELVAAISASGGSTYYADSVKGRFTISRDYAKNTVYLQMNSLTPEDTAVYYCAKVLSRGASAHVYWGQGTQVTVSS”, the entry is “low polyreactivity”; as for “QVQLQESGGGLVQAGGSLRLSCAASGYISYWIYMGCYRQAPGKERELLPVLITVLVPIMRIACKAGFTISRDNAKNSVYLQMNSQKPEDTALYYCAVSWYNGDYFSYWGQGTQVTVSS”, “low polyreactivity”. Then “QVQLVESGGGLVHAGGSLRLSCAASGFTFSFYAMGWYRQAPGKERELVATITGSGVRTYYADSVKGRFTISRDNAKNTVYLQMNSLKPEDTAVYYCNRQGFTHRGYYWGQGTQVTVSS”, with “high polyreactivity”; and “QVQLVESGGGLVQAGGSLRLSCAASGITFGRDAMGWYRQARGKERELVAAISRGSGSTYSADSVKGRFTISRDNAKNTVYLQMHSLKPEDTAVYYCGKVVRVGMGYWGQGTQVTVSS”, with “high polyreactivity”; and “QVQLVESGGGLVQAGGSLRLSCAASGSTIYRYAMGWNRQAPGKERELVATISRTGARTNYADSVKGRFTISRDNAKNTVYLQMNSLKPEDTAVYYCAASAPYIYYWGQGTQVTVSS”, with “high polyreactivity”.

On to “QVQLVESGGGLVQAGGSLRLSCAASGSIFPRNTMGWYRQAPGKEREFVAAITTTGSRTYYADSVKGRFTISRDNAKNTVYLQMNSLKPEDTAVYYCAATRRWYPTKLYGYWGQGTQVTVSS”, for which the “polyreactivity (PSR sort gate)” value is given as “high polyreactivity”. Regarding “QVQLVESGGGLVQAGGSLRLSCAASGGIFWFNAMGWYRQAPGKEREFVAAITWRGGSTYYADSVKGRFTISRDNAKNTVYLQMNSLKPEDTAVYYCAATYWWHRSSGWDRVEYWGQGTQVTVSS”, the “polyreactivity (PSR sort gate)” value is recorded as “high polyreactivity”. For the sequence “QVQLVESGGGLVQAGGSLRLSCAASGRTIYYYARGWYRQAPGKERELVAAITLRGGSTYYADSVKGRFTISRDNAKKTVYLQMNSLKPEDTAVYYCAKESTVRRYDYWGQGTQVTVSS”, the “polyreactivity (PSR sort gate)” value is “low polyreactivity”. Then “QVQLVESGGGLVQAGGSLRLSCAASGRIFSLYAMGWYRPAPGKEMELVAAITGIGGSTYYADSVKGRFTISRDNAKNTVYLQMNSLKPDDTAVYYCAARYPATYPSMGYWGQGTQLTVSS”, with “low polyreactivity”.

With “QVQLVESGGGLVQAGGSLRLSCAASGRTFAPYTMGWYRQAPGKERELVAAINFNGGGTYYADSVKGRFTISRDNAKNTVYLQMNSLKPEDTAVYYCYYLYNYWGQGTQVTVSS”, the “polyreactivity (PSR sort gate)” value was “low polyreactivity”. Consider “QVQLVESGGGLVQAGGSLRLSCAASGITLTRYAMGWYRQAPGKERELVAAITWSGGSTYYADSVKGRFTISRDNAKNTVYLQMNSLKPEDTAVYYCAAEYYEWVFWGYDYWGQGTQVTVSS”, for which the “polyreactivity (PSR sort gate)” value was “high polyreactivity”. Regarding “QVQLVESGGGLVQAGGSLRLSCAASGSIFPSYDMGWYRQAPGKERELVAAIRSGGNTTYADSVKGRFTISRDNAKNTVYLQMNSLKPEDTAVYYCAKGYYYYSTVQFYYWGQGTQVTVSS”, the “polyreactivity (PSR sort gate)” value is recorded as “low polyreactivity”.
